According to patent CN113817050A (WUHAN INST OF BIOLOGICAL PRODUCTS CO LTD, dated 2021):

What was measured:
[1] = molecular target: SARS-CoV-2 RBD结构域重组蛋白(Sino公司，货号40592-V05H) (SARS-CoV-2 (2019-nCoV), UniProt P0DTC2 319-541)
[2] = molecular target: SARS-CoV-2刺突S1亚基蛋白(Sino公司，货号:40591-V02H) (SARS-CoV-2 (2019-nCoV), UniProt P0DTC2 16-685)
[3] = molecular target: T1, SARS-CoV-2刺突S1-His重组蛋白(Sino公司，货号:40591-V08H) (SARS-CoV-2 (2019-nCoV), UniProt P0DTC2 16-685); test: ELISA, S1-His coated at 1.0 μg/mL, detection by goat anti-human IgG-HRP
T1 construct: domain: S1; also called S1蛋白; 刺突蛋白S1

B1: 抗SARS-CoV-2的单克隆抗体1H8 (antibody, V domains shown)
VH: EVQLVESGGGLVQPGGSLRLSCAASEITVSSNYMNWVRQAPGKGLEWVSVIYSGGTTYYADSVKGRFTISRDNSENTLYLQMNSLRAEDTAVYYCARDLMEVGGMDVWGQGTTVTVSS
VL: DIVMTQSPSSLSASVGDRVTITCRASQGVSNYLAWYQQKPGKVPKLLIYAASTLQSGVPSRFSGSRSGTDFTLTISSLQPEDVATYYCQNYNSAPFAFGPGTKVEIK
notes: also called 人源抗SARS-CoV-2抗体1H8; 1H8抗体
EC50 [1]: 0.035 nM | IC50 [1]: 3.6 nM | IC50 [2]: 5.76 nM | EC50 [3]: 0.054 nM
